Test results from the supplement of paper PMC7125110.
± gives the standard error. For some assays here: Variants at the floor of the assay were thinned out.

B1: glmS ribozyme (parent)
chain: AUAAAAGCGCCAGAACUACAGAAAUGUAGUUGACGAGGAGGAGGUUUAUCGAAUUUUCGGCGGAUGCCUCCAAA

How the values were obtained:
Details in all cases: with glucosamine-6-phosphate
[1] = variants of: B1; assay: self-cleavage kobs at 40 uM GlcN6P; higher = faster cleavage; RNA array
How it was run: (§1)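 Barcoded ribozyme variants, transcribed in situ by E. coli RNA polymerase on sequenced MiSeq chips, were followed via a hybridised Cy3 probe at 37 °C. Glucosamine-6-phosphate ranged from 40 μM to 10 mM in HEPES/KCl/Mg(OAc)2 buffer. kobs came from decay fits to per-tile medians, and kcat and KM from weighted Michaelis–Menten fits.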

[2] = variants of: B1; assay: self-cleavage kobs at 2500 uM GlcN6P; higher = faster cleavage; RNA array
How it was run: as §1

[3] = variants of: B1; assay: self-cleavage kobs at 10000 uM GlcN6P; higher = faster cleavage; RNA array
How it was run: as §1

[4] = variants of: B1; assay: self-cleavage kobs at 160 uM GlcN6P; higher = faster cleavage; RNA array
How it was run: as §1

[5] = variants of: B1; assay: self-cleavage kobs at 640 uM GlcN6P; higher = faster cleavage; RNA array
How it was run: as §1

[6] = variants of: B1; assay: KM; higher = weaker cofactor use; RNA array
How it was run: as §1

[7] = variants of: B1; assay: kcat; higher = faster cleavage; RNA array
How it was run: as §1

Variant | self-cleavage kobs at 40 uM GlcN6P [1] | self-cleavage kobs at 2500 uM GlcN6P [2] | self-cleavage kobs at 10000 uM GlcN6P [3] | self-cleavage kobs at 160 uM GlcN6P [4] | self-cleavage kobs at 640 uM GlcN6P [5] | KM [6] | kcat [7]
U31G U54A | 0.000582 ± 0.00015 s⁻¹ | 0.00634 ± 0.0018 s⁻¹ | 0.00833 ± 0.002 s⁻¹ |  |  |  | 
U47G C70U | 0.000323 ± 3.2e-05 s⁻¹ | 0.000583 ± 0.00011 s⁻¹ |  | 0.000641 ± 8.8e-05 s⁻¹ | 0.00192 ± 0.00055 s⁻¹ |  | 
A6C C8G G51A C71U | < 1e-05 s⁻¹ |  | < 1e-05 s⁻¹ |  |  |  | 
C16G A42G | 0.000233 ± 5.6e-05 s⁻¹ |  | 0.00496 ± 0.001 s⁻¹ | 0.000208 ± 9.6e-05 s⁻¹ | 0.000804 ± 0.0003 s⁻¹ |  | 
A14C A15U G51C | < 1e-05 s⁻¹ |  |  |  |  |  | 
G37C A64U | < 1e-05 s⁻¹ | < 1e-05 s⁻¹ | < 1e-05 s⁻¹ | < 1e-05 s⁻¹ | < 1e-05 s⁻¹ |  | 
G40A G44C |  |  |  |  |  | 2680 ± 1100 µM | 
C10U A52C C61A U69A |  |  |  |  |  |  | < 1e-05 s⁻¹
A39G U55G | 0.0012 ± 0.00016 s⁻¹ | 0.00613 ± 0.0016 s⁻¹ | 0.0177 ± 0.0048 s⁻¹ | 0.00211 ± 0.0006 s⁻¹ | 0.00499 ± 0.00097 s⁻¹ | 212 ± 100 µM | 
G60U C70A | < 1e-05 s⁻¹ |  | < 1e-05 s⁻¹ | < 1e-05 s⁻¹ | < 1e-05 s⁻¹ |  | 
C70U | 0.00149 ± 4.2e-05 s⁻¹ | 0.0161 ± 0.0012 s⁻¹ | 0.0554 ± 0.0035 s⁻¹ | 0.00417 ± 0.00021 s⁻¹ | 0.0095 ± 0.00039 s⁻¹ |  | 
A5U | 0.000961 ± 0.00015 s⁻¹ | 0.0143 ± 0.0042 s⁻¹ | 0.0129 ± 0.003 s⁻¹ | 0.00247 ± 0.00049 s⁻¹ | 0.00869 ± 0.0012 s⁻¹ | 661 ± 170 µM | 0.0156 ± 0.0027 s⁻¹
A6C C50A | < 1e-05 s⁻¹ |  | < 1e-05 s⁻¹ |  |  |  | 
A52G G60A U65G C71U | < 1e-05 s⁻¹ |  |  |  |  |  | 
C8U U45G | < 1e-05 s⁻¹ | < 1e-05 s⁻¹ |  | < 1e-05 s⁻¹ | < 1e-05 s⁻¹ |  | 
G9A A48G | < 1e-05 s⁻¹ | < 1e-05 s⁻¹ | < 1e-05 s⁻¹ |  | < 1e-05 s⁻¹ |  | 
C34U A42U |  |  |  |  |  | 70.4 ± 29 µM | 
C50G C70A | 8.32e-05 ± 1.7e-05 s⁻¹ | 0.000238 ± 5.8e-05 s⁻¹ | 7.91e-05 ± 1.3e-05 s⁻¹ | 0.000173 ± 5.4e-05 s⁻¹ | 0.000163 ± 4.1e-05 s⁻¹ |  | 
A14U G41U G44U | < 1e-05 s⁻¹ |  | < 1e-05 s⁻¹ | < 1e-05 s⁻¹ | < 1e-05 s⁻¹ |  | 
G9C G13C G35C | < 1e-05 s⁻¹ |  |  |  | < 1e-05 s⁻¹ |  | 
C10U A52C U57G | < 1e-05 s⁻¹ | < 1e-05 s⁻¹ | < 1e-05 s⁻¹ |  | < 1e-05 s⁻¹ |  | 
A39C C50U |  |  |  |  |  | 1080 ± 200 µM | 
U47G C58A G59A C70A | 4.75e-05 ± 1.8e-05 s⁻¹ |  |  |  |  |  | 

Variant | self-cleavage kobs at 40 uM GlcN6P [1] | self-cleavage kobs at 2500 uM GlcN6P [2] | self-cleavage kobs at 10000 uM GlcN6P [3] | self-cleavage kobs at 160 uM GlcN6P [4] | self-cleavage kobs at 640 uM GlcN6P [5] | KM [6] | kcat [7]
C19A A53U | 0.000466 ± 8.9e-05 s⁻¹ |  | 0.0123 ± 0.0028 s⁻¹ |  | 0.00276 ± 0.0012 s⁻¹ |  | 
C34U C68A |  |  |  |  |  |  | 1.2e-05 ± 1.8e-06 s⁻¹
G63U A64C C67G C70U | < 1e-05 s⁻¹ |  | < 1e-05 s⁻¹ |  | < 1e-05 s⁻¹ |  | 
G38U G44U U49C | < 1e-05 s⁻¹ |  | < 1e-05 s⁻¹ |  |  |  | 
G41C U69C |  |  |  |  |  | 84.1 ± 23 µM | 
U31A A42G G51A C70G | < 1e-05 s⁻¹ |  | < 1e-05 s⁻¹ |  |  |  | 
A14U G43A U49A C58U | < 1e-05 s⁻¹ |  | < 1e-05 s⁻¹ |  |  |  | 
C10U G13C G40A | < 1e-05 s⁻¹ |  |  | < 1e-05 s⁻¹ |  |  | 
C10A A33C A64C | < 1e-05 s⁻¹ | < 1e-05 s⁻¹ | < 1e-05 s⁻¹ |  |  |  | 
U47G C67U | 0.000141 ± 2.6e-05 s⁻¹ | 0.00125 ± 0.0002 s⁻¹ | 0.00343 ± 0.00067 s⁻¹ | 0.000305 ± 5.6e-05 s⁻¹ | 0.00064 ± 8.6e-05 s⁻¹ |  | 
G13U C68A C70G | < 1e-05 s⁻¹ |  | < 1e-05 s⁻¹ |  |  | 139 ± 65 µM | 2.66e-05 ± 2.1e-06 s⁻¹
A36G C61A | < 1e-05 s⁻¹ |  | < 1e-05 s⁻¹ |  | < 1e-05 s⁻¹ |  | 
G37C A39U |  |  |  |  |  | 1230 ± 450 µM | 1.36e-05 ± 1e-06 s⁻¹
C16U U56A | 0.000484 ± 9.4e-05 s⁻¹ | 0.00493 ± 0.0012 s⁻¹ | 0.0273 ± 0.0079 s⁻¹ | 0.000861 ± 0.00013 s⁻¹ | 0.00448 ± 0.0011 s⁻¹ |  | 
C11G U54C | < 1e-05 s⁻¹ |  |  |  |  |  | 
C11U A48U G51U | < 1e-05 s⁻¹ |  |  |  |  |  | 
U30C U55A U57G | < 1e-05 s⁻¹ |  |  |  |  |  | 
A6C A12G | < 1e-05 s⁻¹ |  |  | < 1e-05 s⁻¹ | < 1e-05 s⁻¹ |  | 
C16U U69C | 0.000407 ± 8.8e-05 s⁻¹ | 0.000683 ± 0.00014 s⁻¹ | 0.0036 ± 0.00088 s⁻¹ | 0.000359 ± 9e-05 s⁻¹ | 0.000778 ± 0.00013 s⁻¹ |  | 
U30A C34U C68G | 0.000169 ± 6.6e-05 s⁻¹ |  | 0.000202 ± 6.3e-05 s⁻¹ |  | 0.000629 ± 0.00024 s⁻¹ |  | 
C10G C16G G35C A39C | < 1e-05 s⁻¹ |  | < 1e-05 s⁻¹ |  |  |  | 
G7U C10A G60U | < 1e-05 s⁻¹ | < 1e-05 s⁻¹ |  | < 1e-05 s⁻¹ |  |  | 
A36G U56G | < 1e-05 s⁻¹ |  |  |  | < 1e-05 s⁻¹ |  | 
